Experimental data from article PMC6932780, “Comprehensive analysis of putative dihydroflavonol 4-reductase gene family in tea plant” (PLoS ONE, 2019).

Legend:
Assay in all cases: purified protein
Format in all cases: biochemical, Camellia sinensis
Conditions in all cases: 0.24 mM NADPH, citrate-phosphate buffer pH 7.2, 25°C
purified protein [1] = substrate: O=C1c2c(O)cc(O)cc2O[C@H](c2cc(O)c(O)c(O)c2)[C@H]1O
purified protein [2] = substrate: O=C1c2c(O)cc(O)cc2O[C@H](c2ccc(O)c(O)c2)[C@H]1O
purified protein [3] = substrate: O=C1c2c(O)cc(O)cc2O[C@H](c2ccc(O)cc2)[C@H]1O

| Protein | Km (purified protein [1]) [µM] | Km (purified protein [2]) [µM] | Km (purified protein [3]) [µM] |
| --- | --- | --- | --- |
| CsDFRa (Camellia sinensis) (protein, full-length ORF in pET-32a, E. coli Rosetta (DE3), Ni Sepharose purified, vector tag removal not mentioned) MKDSVASATASAPGTVCVTGAAGFIGSWLVMRLLERGYIVRATVRDPANLKKVKHLLDLPKADTNLTLWKADLNEEGSFDEAIEGCSGVFHVATPMDFESKDPENEVIKPTINGVLSIIRSCTKAKTVKRLVFTSSAGTVNVQEHQQPVFDENNWSDLDFINKKKMTGWMYFVSKTLAEKAAWEAAKENNIDFISIIPTLVVGPFIMPTFPPSLITALSPITRNEGHYSIIKQGQFVHLDDLCESHIFLYERPQAEGRYICSSHDATIHDLAKLMREKWPEYNVPTEFKGIDKDLPVVSFSSKKLIGMGFEFKYSLEDMFRGAIDTCREKGLLPHSFAENPVNGNKV | 43.0 | 8.0 | 539.8 |
| CsDFRa (Camellia sinensis; N141D) (protein, full-length ORF in pET-32a, E. coli Rosetta (DE3), Ni Sepharose purified, vector tag removal not mentioned) MKDSVASATASAPGTVCVTGAAGFIGSWLVMRLLERGYIVRATVRDPANLKKVKHLLDLPKADTNLTLWKADLNEEGSFDEAIEGCSGVFHVATPMDFESKDPENEVIKPTINGVLSIIRSCTKAKTVKRLVFTSSAGTVDVQEHQQPVFDENNWSDLDFINKKKMTGWMYFVSKTLAEKAAWEAAKENNIDFISIIPTLVVGPFIMPTFPPSLITALSPITRNEGHYSIIKQGQFVHLDDLCESHIFLYERPQAEGRYICSSHDATIHDLAKLMREKWPEYNVPTEFKGIDKDLPVVSFSSKKLIGMGFEFKYSLEDMFRGAIDTCREKGLLPHSFAENPVNGNKV | 37.2 | 252.0 | – |
| CsDFRa (Camellia sinensis; N141A) (protein, full-length ORF in pET-32a, E. coli Rosetta (DE3), Ni Sepharose purified, vector tag removal not mentioned) MKDSVASATASAPGTVCVTGAAGFIGSWLVMRLLERGYIVRATVRDPANLKKVKHLLDLPKADTNLTLWKADLNEEGSFDEAIEGCSGVFHVATPMDFESKDPENEVIKPTINGVLSIIRSCTKAKTVKRLVFTSSAGTVAVQEHQQPVFDENNWSDLDFINKKKMTGWMYFVSKTLAEKAAWEAAKENNIDFISIIPTLVVGPFIMPTFPPSLITALSPITRNEGHYSIIKQGQFVHLDDLCESHIFLYERPQAEGRYICSSHDATIHDLAKLMREKWPEYNVPTEFKGIDKDLPVVSFSSKKLIGMGFEFKYSLEDMFRGAIDTCREKGLLPHSFAENPVNGNKV | 90.6 | 88.5 | 398.1 |
